Where no end group is shown, it is not given here. [ ]: non-standard residue; d: D form.
Experiments:
T84 cells = assay: cGMP synthesis in T84 cells, GCC agonist alone or in combination with PDE inhibitors; type: cell-based, human; conditions: 100 μM, 30 min
Description: FIG. 9: Stimulation of cGMP synthesis in T84 cells by SP-304 (0.1 μM) either alone or in combination with the phosphodiesterase (PDE) inhibitors Sulindac Sulfone (100 μM) or Zaprinast (100 μM). T84 cells were exposed to various treatments, as indicated, for 30 min and the cell lysates were used to determine the intracellular cGMP levels. Data points shown are the average of duplicate measurements.
FIG. 10: Stimulation of cGMP synthesis in T84 cells by SP-304 (0.1 or 1.0 μM) either alone or in combination with incremental concentrations of phosphodiesterase (PDE) inhibitors, as indicated. T84 cells were exposed to various treatments, as indicated, for 30 min and the cell lysates were used to determine the intracellular cGMP levels. Data points shown are the average of duplicate measurements. […]
SS and ZAP in combination with SP-304 or SP-333 were evaluated to see if these PDE inhibitors had any synergistic effects on intracellular accumulation of cGMP (FIG. 9-12). […]
For the results shown in FIG. 9, cyclic GMP synthesis in T84 cells was assessed essentially as described in Shailubhai et al., Cancer Research 60, 5151-5157 (2000). […] Following centrifugation and the addition of NaOH (0.1 N) to neutralize the pH, intracellular cGMP levels were determined in lysates using a cGMP ELISA kit (Cat. No. 581021; Cayman Chemical, Ann Arbor, Mich.). […]

[1] = Stability in simulated intestinal fluid (SIF), biological activity by cGMP synthesis in T84 cells; type: in vitro ADME; conditions: SIF, two hour incubation (FIG. 7A)
Description: FIG. 2A: Biological activity of SP-304 incubated for varying lengths of time in simulated intestinal fluid (SIF). SP-304 samples were incubated for 0, 30, 60, 90, 150, and 300 min, respectively, and then tested for their ability to stimulate cGMP synthesis in T84 cells. The cGMP stimulation activity in the sample at 0 min of incubation time in SIF was taken as 100% biological activity. The activities of the other SP-304 incubation samples were calculated as the percentage of activity relative to that of the 0 min sample. Data points shown are the average of triplicate measurements±SD.
(§1) FIG. 7A: Biological activity of SP-333 incubated for varying lengths of time in simulated intestinal fluid (SIF). SP-333 samples incubated for 0, 5, 10, 30, 60, and 120 min, respectively, were tested for their ability to stimulate cGMP synthesis in T84 cells. The control sample marked as C120 was produced by incubating SP-333 with heat inactivated SIF for 120 min. Samples from the incubations were removed and heated at 95° C. for 5 min to inactivate digestive enzymes and then used to stimulate cyclic GMP synthesis in T84 cells. The cGMP stimulation activity in the sample at 0 min of incubation time in SIF was taken as 100% biological activity. The activities of the other SP-304 incubation samples were calculated as the percentage of activity relative to that of the 0 min sample. Data points shown are the average of triplicate measurements±SD.
as §1, with “FIG. 7B:” for “FIG. 7A:”, “of SP-332” for “of SP-333”, “incubating SP-332” for “incubating SP-333”
FIG. 7C: Biological activity of SP-304 incubated for varying lengths of time in simulated intestinal fluid (SIF). SP-304 samples incubated for 0, 10, and 60 min, respectively, were tested for their ability to stimulate cGMP synthesis in T84 cells. The control samples marked as C0 and C60 were produced by incubating SP-304 with heat inactivated SIF for 0 and 60 min, respectively. Samples from the incubations were removed and heated at 95° C. for 5 min to inactivate digestive enzymes and then used to stimulate cyclic GMP synthesis in T84 cells. The cGMP stimulation activity in the sample at 0 min of incubation time in SIF was taken as 100% biological activity. The activities of the other SP-304 incubation samples were calculated as the percentage of activity relative to that of the 0 min sample. […]
FIGS. 7G-1-7G-5: Incubation of SP-333 with SIF for 2, 6, 12 and 24 hrs. Effect of SIF digestion on the activity of SP-333 in T84 stimulation assay was determined (FIG. 7G-1) and samples were also analyzed by HPLC (FIGS. 7G2-5). […]
The stability of SP-304 was also evaluated after incubation with simulated intestinal fluid (SIF) by measuring its biological activity and by HPLC analyses (FIGS. 2A & 2B). […]

[2] = Stability in simulated intestinal fluid (SIF), HPLC analysis; type: in vitro ADME; conditions: SIF
Description: FIG. 2B: HPLC chromatographic spectra of SP-304 samples after incubation with: (A) heat-inactivated SIF for 300 minutes, or (B) SIF for 120 minutes. The arrows show the elution position of SP-304.
FIGS. 7D-1-7D-2: HPLC chromatograms of SP-304 incubated for 0 min in SIF (FIG. 7D-1) and 60 min in SIF (FIG. 7D-2), respectively. The arrows indicate the elution positions of the parent SP-304 peptides. […] These new peptide peaks represent degradation products of SP-304.
FIGS. 7E-1-7-E2: HPLC chromatograms of SP-332 incubated for 0 min in SIF (FIG. 7E-1) and 120 min in SIF (FIG. 7E-2), respectively. The arrows indicate the elution positions of the parent SP-332 peptides.
FIGS. 7F-1-7F-2: HPLC chromatograms of SP-333 incubated for 0 min in SIF (FIG. 7F-1) and 120 min in SIF (FIG. 7F-2), respectively. The arrows indicate the elution positions of the parent SP-333 peptides.
FIGS. 7G-1-7G-5: Incubation of SP-333 with SIF for 2, 6, 12 and 24 hrs. Effect of SIF digestion on the activity of SP-333 in T84 stimulation assay was determined (FIG. 7G-1) and samples were also analyzed by HPLC (FIGS. 7G2-5). The elution positions of the parent peptide and its metabolites are indicated by arrows.
The physical stability of SP-304 peptide exposed to SIF was evaluated by HPLC using the method described for SGF digestion. […]

intestinal GC-C receptor = molecular target: T1, intestinal GC-C receptor (Homo sapiens, UniProt P25092); assay: Cyclic GMP stimulation assay in T84 cells; type: cell-based; conditions: 30 min exposure (FIG. 5)
T1 construct: confluent monolayers of T-84 cells in 24-well plates; host or cells: T84 human colon carcinoma cells
Excerpt: FIG. 4: Biological activity of truncated peptides of 16-mer SP-304, as measured by stimulation of cGMP synthesis in T84 cells. SP-338 15-mer peptide is indentical to SP-304 except that it lacks Leu at the C-terminus. SP-327, SP-329 and SP-331 lack Leu at their C-termini relative to their corresponding parents, SP-326, SP-328 and SP-330, respectively. Data points shown are the average of duplicate measurements.
FIG. 5: Stimulation of cGMP synthesis in T84 cells by SP-304 and similar analogs. T84 cells were exposed to test peptides for 30 min and cell lysates were then used to determine intracellular cGMP levels. Data points shown are the average of triplicate measurements±SD.
FIG. 6: Stimulation of cGMP synthesis in T84 cells by SP-339 (linaclotide) and other linaclotide analogs. T84 cells were exposed to test peptides for 30 min and cell lysates were then used to determine intracellular cGMP levels. Data points shown are the average of triplicate measurements±SD.
FIG. 8: Stimulation of cGMP synthesis in T84 cells by the peggylated analogs of SP-333. T84 cells were exposed to the indicated peptides for 30 min and cell lysates were used to determine intracellular cGMP levels. Data points shown are the average of triplicate measurements±SD.
After the 30 min incubation, the medium was aspirated and the reaction was terminated by the addition of 3% perchloric acid. Following centrifugation and the addition of NaOH (0.1 N) to neutralize the pH, intracellular cGMP levels were determined in lysates using a cGMP ELISA kit (Cat. No. 581021; Cayman Chemical, Ann Arbor, Mich.). Peptide incubations were run in duplicate, and samples taken from each incubation were run as duplicates in the ELISA test.
The ability of the GCC agonist peptide to bind to and activate the intestinal GC-C receptor was tested using T84 human colon carcinoma cell line. Human T84 colon carcinoma cells were obtained from the American Type Culture Collection. Cells were grown in a 1:1 mixture of Ham's F-12 medium and Dulbecco's modified Eagle's medium (DMEM) supplemented with 10% fetal bovine serum, 100 U penicillin/ml, and 100 μg/ml streptomycin. The cells were fed fresh medium every third day and split at a confluence of approximately 80%.
Biological activity of the GCC agonist peptides was assayed as previously reported (Shailubhai, et al., Cancer Research 60, 5151-5157 (2000)). Briefly, the confluent monolayers of T-84 cells in 24-well plates were washed twice with 250 μl of DMEM containing 50 mM HEPES (pH 7.4), pre-incubated at 37° C. for 10 min with 250 μl of DMEM containing 50 mM HEPES (pH 7.4) and 1 mM isobutylmethylxanthine (IBMX), followed by incubation with GCC agonist peptides (0.1 nM to 10 µM) for 30 min. The medium was aspirated, and the reaction was terminated by the addition of 3% perchloric acid. Following centrifugation, and neutralization with 0.1 N NaOH, the supernatant was used directly for measurements of cGMP using an ELISA kit (Caymen Chemical, Ann Arbor, Mich.).
An additional strategy to render peptides more resistant towards digestion by digestive proteases is to peggylate them at the N- and C-terminus. The peptide SP-333 was peggylated with the aminoethyloxy-ethyloxy-acetic acid (Aeea) group at the C-terminus (SP-347) or at the N-terminus (SP-350) or at both termini (SP-343). Cyclic GMP synthesis in T84 cells was measured by the method as described above.

T1 sequence (P25092 24-1073): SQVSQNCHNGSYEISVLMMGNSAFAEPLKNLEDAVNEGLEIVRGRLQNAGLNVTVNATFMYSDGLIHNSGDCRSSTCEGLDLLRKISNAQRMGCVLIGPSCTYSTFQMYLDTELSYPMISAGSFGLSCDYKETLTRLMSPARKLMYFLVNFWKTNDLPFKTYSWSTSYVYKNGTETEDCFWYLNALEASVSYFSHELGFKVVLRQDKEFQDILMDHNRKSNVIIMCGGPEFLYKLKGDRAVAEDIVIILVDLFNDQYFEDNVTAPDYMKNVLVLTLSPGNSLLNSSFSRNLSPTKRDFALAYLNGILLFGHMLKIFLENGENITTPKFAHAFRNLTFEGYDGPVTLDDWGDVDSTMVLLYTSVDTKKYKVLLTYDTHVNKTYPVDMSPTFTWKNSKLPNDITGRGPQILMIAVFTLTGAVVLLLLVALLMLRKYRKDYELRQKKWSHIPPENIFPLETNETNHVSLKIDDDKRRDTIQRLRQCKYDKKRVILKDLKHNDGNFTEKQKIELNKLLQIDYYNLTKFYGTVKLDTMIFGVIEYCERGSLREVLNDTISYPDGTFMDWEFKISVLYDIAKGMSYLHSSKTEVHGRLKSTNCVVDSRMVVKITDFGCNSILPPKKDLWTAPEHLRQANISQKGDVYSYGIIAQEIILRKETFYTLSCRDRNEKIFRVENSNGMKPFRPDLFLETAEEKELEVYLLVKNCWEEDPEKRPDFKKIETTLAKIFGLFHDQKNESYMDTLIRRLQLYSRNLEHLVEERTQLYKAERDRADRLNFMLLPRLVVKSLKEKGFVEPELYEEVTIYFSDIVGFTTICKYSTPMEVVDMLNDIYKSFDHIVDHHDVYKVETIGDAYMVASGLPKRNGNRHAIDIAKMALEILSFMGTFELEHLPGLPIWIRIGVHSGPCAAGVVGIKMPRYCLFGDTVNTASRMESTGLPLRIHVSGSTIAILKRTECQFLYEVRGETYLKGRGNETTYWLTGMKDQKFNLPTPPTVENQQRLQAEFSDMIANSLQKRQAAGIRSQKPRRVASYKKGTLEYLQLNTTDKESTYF

CC1=C(CC(=O)O)c2cc(F)ccc2/C1=C\c1ccc(S(C)(=O)=O)cc1 [Sulindac Sulfone]
intracellular accumulation of cGMP, PDE inhibitor alone (T84 cells): did not enhance

dAsn^1-Asp^2-Glu^3-Cys^4-Glu^5-Leu^6-Cys^7-Val^8-Asn^9-Val^10-Ala^11-Cys^12-Thr^13-Gly^14-Cys^15-dLeu^16 ([dN]DECELCVNVACTGC[dL]; disulfide (positions not given here); also: two disulfides, pairing not given here) [SP-333]
biological activity remaining after incubation in SIF [1]: ~100% | HPLC analysis of parent peptide after incubation with SIF ([2]; 120 min): remained virtually intact | degradation in SIF ([2]; up to 24 hours (FIG. 7G)): very little degradation | ability to stimulate cGMP synthesis in T84 cells relative to SP-304 (intestinal GC-C receptor): comparable ability
